By Kd is commonly meant a measure of binding affinity in units of concentration. High values mean a looser complex, low ones a tighter complex.

The target of the experiment is SARS-CoV-2 spike protein receptor binding domain (RBD) (SARS-CoV-2, UniProt P0DTC2 319-541). The experiment in a line: SPR. In general terms: Surface plasmon resonance follows binding to a sensor surface in real time, without labels.

B1: bACE2-Rm residues 19 to 615 fused to the mouse Fc tag (bACE2-Rm-mFc) (Fc fusion)
chain: STTEDEAKKFLDKFNSKAEDLSYESSLASWDYNTNISDENVQKMDEAGAKWSAFYEEQSKLAKNYPLEEIQNDTVKRQLQILQQSGSPVLSEDKSKRLNSILNAMSTIYSTGKVCKPNNPQECLLLEPGLDNIMGTSKDYNERLWAWEGWRAEVGKQLRPLYEEYVVLKNEMARGYHYEDYGDYWRRDYETEESSGPGYSRDQLMKDVDRIFTEIKPLYEHLHAYVRAKLMDTYPLHISPTGCLPAHLLGDMWGRFWTNLYPLTVPFGQKPNIDVTDAMLNQGWDANRIFKEAEKFFVSVSLPKMTEGFWNKSMLTEPGDGRKVVCHPTAWDLGKGDFRIKMCTKVTMEDFLTAHHEMGHIQYDMAYASQPYLLRNGANEGFHEAVGEVMSLSVATPKHLKTMGLLSPDFREDDETEINFLLKQALNIVGTLPFTYMLEKWRWMVFKGEIPKEEWMKKWWEMKREIVGVVEPVPHDETYCDPASLFHVANDYSFIRYYTRTIFEFQFHEALCRIAQHNGPLHKCDISNSTDAGKKLHQMLSVGKSQAWTKTLEDIVDSRNMDVGPLLRYFKPLYTWLQEQNRKSYVGWNTDWSPYAD
For B1, the Kd came to 500 nM.

Values taken from article PMC7817217 (2020).
